The labels stand for the following.
B1: SH3 domain-binding protein 2 (Homo sapiens), P78314 (parent)
chain: MAAEEMHWPVPMKAIGAQNLLTMPGGVAKAGYLHKKGGTQLQLLKWPLRFVIIHKRCVYYFKSSTSASPQGAFSLSGYNRVMRAAEETTSNNVFPFKIIHISKKHRTWFFSASSEEERKSWMALLRREIGHFHEKKDLPLDTSDSSSDTDSFYGAVERPVDISLSPYPTDNEDYEHDDEDDSYLEPDSPEPGRLEDALMHPPAYPPPPVPTPRKPAFSDMPRAHSFTSKGPGPLLPPPPPKHGLPDVGLAAEDSKRDPLCPRRAEPCPRVPATPRRMSDPPLSTMPTAPGLRKPPCFRESASPSPEPWTPGHGACSTSSAAIMATATSRNCDKLKSFHLSPRGPPTSEPPPVPANKPKFLKIAEEDPPREAAMPGLFVPPVAPRPPALKLPVPEAMARPAVLPRPEKPQLPHLQRSPPDGQSFRSFSFEKPRQPSQADTGGDDSDEDYEKVPLPNSVFVNTTESCEVERLFKATSPRGEPQDGLYCIRNSSTKSGKVLVVWDETSNKVRNYRIFEKDSKFYLEGEVLFVSVGSMVEHYHTHVLPSHQSLLLRHPYGYTGPR

Results on one variant are retold here after IntAct's records for PubMed 17306257.

Variants of B1 are the subject of the test. Particulars: with sh3k1_human SH3KBP1, Q96B97.
Sequence of sh3k1_human SH3KBP1, Q96B97 (Q96B97 whole entry): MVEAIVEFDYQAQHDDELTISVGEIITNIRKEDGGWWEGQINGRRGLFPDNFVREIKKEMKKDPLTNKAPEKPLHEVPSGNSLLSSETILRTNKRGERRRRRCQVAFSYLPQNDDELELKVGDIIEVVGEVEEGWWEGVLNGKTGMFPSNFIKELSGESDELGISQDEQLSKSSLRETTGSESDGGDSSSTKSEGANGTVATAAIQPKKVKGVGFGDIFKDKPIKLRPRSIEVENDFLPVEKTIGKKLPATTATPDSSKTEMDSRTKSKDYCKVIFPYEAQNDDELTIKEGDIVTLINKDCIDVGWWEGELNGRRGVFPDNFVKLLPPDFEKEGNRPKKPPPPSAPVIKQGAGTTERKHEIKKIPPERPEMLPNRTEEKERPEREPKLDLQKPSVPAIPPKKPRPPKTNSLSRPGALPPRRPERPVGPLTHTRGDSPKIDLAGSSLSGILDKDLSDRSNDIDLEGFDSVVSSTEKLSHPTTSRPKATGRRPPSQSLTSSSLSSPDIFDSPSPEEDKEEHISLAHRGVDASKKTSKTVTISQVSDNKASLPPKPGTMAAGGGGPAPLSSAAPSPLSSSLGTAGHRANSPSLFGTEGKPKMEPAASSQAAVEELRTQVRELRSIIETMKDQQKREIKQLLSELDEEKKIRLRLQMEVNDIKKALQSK
On to MAAEEMHWPVPMKAIGAQNLLTMPGGVAKAGYLHKKGGTQLQLLKWPLRFVIIHKRCVYYFKSSTSASPQGAFSLSGYNRVMRAAEETTSNNVFPFKIIHISKKHRTWFFSASSEEERKSWMALLRREIGHFHEKKDLPLDTSDSSSDTDSFYGAVERPVDISLSPYPTDNEDYEHDDEDDSYLEPDSPEPGRLEDALMHPPAYPPPPVPTPAKPAFSDMPRAHSFTSKGPGPLLPPPPPKHGLPDVGLAAEDSKRDPLCPRRAEPCPRVPATPRRMSDPPLSTMPTAPGLRKPPCFRESASPSPEPWTPGHGACSTSSAAIMATATSRNCDKLKSFHLSPRGPPTSEPPPVPANKPKFLKIAEEDPPREAAMPGLFVPPVAPRPPALKLPVPEAMARPAVLPRPEKPQLPHLQRSPPDGQSFRSFSFEKPRQPSQADTGGDDSDEDYEKVPLPNSVFVNTTESCEVERLFKATSPRGEPQDGLYCIRNSSTKSGKVLVVWDETSNKVRNYRIFEKDSKFYLEGEVLFVSVGSMVEHYHTHVLPSHQSLLLRHPYGYTGPR [R213A], for which the “effect of a mutation on the interaction” value was “decreasing interaction”.
